Experiments:
[1] = molecular target: denatured SHaPrP 27-30 (Syrian hamster) (UniProt P04273); assay: ELISA on denatured PrP 27-30 (FIG. 10)
[2] = molecular target: non-denatured SHaPrP 27-30 (Syrian hamster) (UniProt P04273); assay: ELISA on non-denatured PrP 27-30 (FIG. 9)
[3] = molecular target: non-denatured SHaPrP 27-30 (Syrian hamster) (UniProt P04273); assay: estimated from immunoprecipitation (FIG. 12)

3F4 Fab was tested, and the Ka [1] was 1e+08 M⁻¹, the EC50 [2] was 2 µg/mL and the Ka [3] was < 1e+07 M⁻¹.
